Test results published in article PMC2908316 (Journal of biomolecular screening, 2009).

What was measured:
[1] = target: T1, full-length RGS8, GST-fusion protein, biotinylated (UniProt P49804 1-180, biotin on amines (Biotin-NHS, 3:1 biotin:RGS)); assay: flow cytometry protein interaction assay
T1 sequence (looked up): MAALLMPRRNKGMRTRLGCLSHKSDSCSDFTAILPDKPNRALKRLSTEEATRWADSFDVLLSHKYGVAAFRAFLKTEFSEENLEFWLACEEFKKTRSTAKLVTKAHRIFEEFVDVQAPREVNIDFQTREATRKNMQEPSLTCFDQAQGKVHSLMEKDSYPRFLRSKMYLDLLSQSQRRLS

[2] = target: T2, RGS7 RH domain, GST-fusion protein, biotinylated (UniProt P49802 333-448, biotin on amines (Biotin-NHS, 3:1 biotin:RGS)); assay: flow cytometry protein interaction assay
T2 sequence (looked up): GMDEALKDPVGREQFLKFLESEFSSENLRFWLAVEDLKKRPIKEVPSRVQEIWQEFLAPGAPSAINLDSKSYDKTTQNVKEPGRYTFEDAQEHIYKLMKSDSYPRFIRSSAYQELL

B1: Rat Gαo, N-terminal 6X-HIS tagged, labeled with AlexaFluor 532 (natural protein, UniProt P59215 1-354, looked up)
chain: MGCTLSAEERAALERSKAIEKNLKEDGISAAKDVKLLLLGAGESGKSTIVKQMKIIHEDGFSGEDVKQYKPVVYSNTIQSLAAIVRAMDTLGVEYGDKERKADSKMVCDVVSRMEDTEPFSAELLSAMMRLWGDSGIQECFNRSREYQLNDSAKYYLDSLDRIGAADYQPTEQDILRTRVKTTGIVETHFTFKNLHFRLFDVGGQRSERKKWIHCFEDVTAIIFCVALSGYDQVLHEDETTNRMHESLMLFDSICNNKFFIDTSIILFLNKKDLFGEKIKKSPLTICFPEYPGSNTYEDAAAYIQTQFESKNRSPNKEIYCHMTCATDTNNIQVVFDAVTDIIIANNLRGCGLY
modifications: AlexaFluor 532 carboxylic acid succinimidyl ester label, 3:1 fluorophore:protein ratio
[1]
  bead-associated fluorescence, positive control mean (with AlF4-): 2060
[2]
  bead-associated fluorescence, positive control mean (with AlF4-): 948
